Source: patent publication US20260078196A1 (TJ BIOPHARMA SHANGHAI, published 2026)
Like-named read-outs stand apart in the source and are kept apart here.

T1: HEK293-MUC16 (13810-14507) (human, UniProt Q8WXI7 13810-14507)
T1 construct: range 13810-14507; also called MUC16 overexpressed HEK293 cells
T1 sequence: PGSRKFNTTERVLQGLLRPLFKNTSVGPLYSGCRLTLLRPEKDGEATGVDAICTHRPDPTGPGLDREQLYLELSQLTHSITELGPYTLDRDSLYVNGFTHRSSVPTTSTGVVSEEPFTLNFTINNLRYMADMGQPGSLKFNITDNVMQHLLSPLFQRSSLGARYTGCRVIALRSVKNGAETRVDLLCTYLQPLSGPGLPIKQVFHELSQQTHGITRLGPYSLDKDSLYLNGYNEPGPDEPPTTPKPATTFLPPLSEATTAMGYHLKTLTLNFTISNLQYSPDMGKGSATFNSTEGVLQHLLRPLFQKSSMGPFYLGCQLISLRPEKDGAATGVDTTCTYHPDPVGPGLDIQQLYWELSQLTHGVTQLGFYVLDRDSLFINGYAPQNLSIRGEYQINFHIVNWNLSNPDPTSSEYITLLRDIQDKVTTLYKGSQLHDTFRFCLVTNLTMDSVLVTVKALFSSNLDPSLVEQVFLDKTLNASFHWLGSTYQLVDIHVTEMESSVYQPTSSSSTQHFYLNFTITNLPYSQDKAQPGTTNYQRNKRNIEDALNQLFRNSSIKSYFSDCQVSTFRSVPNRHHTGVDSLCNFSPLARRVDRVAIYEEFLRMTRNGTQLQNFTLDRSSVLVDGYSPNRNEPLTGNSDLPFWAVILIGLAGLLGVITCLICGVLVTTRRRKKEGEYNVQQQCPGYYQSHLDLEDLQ

T2: huMUC16, AA14198-14507
T2 chain: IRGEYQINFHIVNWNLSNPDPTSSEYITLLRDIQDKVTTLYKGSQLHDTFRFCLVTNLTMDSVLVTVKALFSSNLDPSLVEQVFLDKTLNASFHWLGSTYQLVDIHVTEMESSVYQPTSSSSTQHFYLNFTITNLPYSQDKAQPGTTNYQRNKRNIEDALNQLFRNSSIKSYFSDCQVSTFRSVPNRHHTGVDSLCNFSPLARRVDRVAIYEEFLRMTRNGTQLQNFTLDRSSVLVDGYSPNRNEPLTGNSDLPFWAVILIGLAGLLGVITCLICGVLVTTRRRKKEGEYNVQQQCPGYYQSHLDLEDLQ

T3: huMUC16, AA13789-14451
T3 construct: also called MUC16 Antigen (human MUC16 AA13789-14451)
T3 chain: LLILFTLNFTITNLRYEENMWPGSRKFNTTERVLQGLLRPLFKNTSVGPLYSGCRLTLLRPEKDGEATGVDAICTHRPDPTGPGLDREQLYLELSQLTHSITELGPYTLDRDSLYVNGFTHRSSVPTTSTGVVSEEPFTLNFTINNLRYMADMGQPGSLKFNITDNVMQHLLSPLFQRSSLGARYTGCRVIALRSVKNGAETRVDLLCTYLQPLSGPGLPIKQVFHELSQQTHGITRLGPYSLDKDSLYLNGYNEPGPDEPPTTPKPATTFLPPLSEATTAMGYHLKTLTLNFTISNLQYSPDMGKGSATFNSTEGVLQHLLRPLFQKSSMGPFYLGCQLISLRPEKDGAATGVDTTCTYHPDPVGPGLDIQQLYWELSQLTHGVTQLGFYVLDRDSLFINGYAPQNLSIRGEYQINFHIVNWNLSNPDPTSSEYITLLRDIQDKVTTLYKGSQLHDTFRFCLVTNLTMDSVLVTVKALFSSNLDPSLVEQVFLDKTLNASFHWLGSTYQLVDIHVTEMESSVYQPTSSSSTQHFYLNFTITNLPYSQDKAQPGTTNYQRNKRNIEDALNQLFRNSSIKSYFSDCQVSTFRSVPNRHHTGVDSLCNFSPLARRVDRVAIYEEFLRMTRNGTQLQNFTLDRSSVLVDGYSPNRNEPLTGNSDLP


Legend:
[1] = biological target: T4, ROR1 on cells (UniProt Q01973 30-937); assay: flow cytometry (gMFI) on A549 cells
T4 construct: whole, on cells; also called ROR1 endogenous expressed tumor cell A549; ROR1-positive tumor cell lines

[2] = biological target: T5, human MUC16 on cells (human, UniProt Q8WXI7 1-14507); assay: flow cytometry (MFI GeoMean) on SNU216 cells, nM is the unit of the x axis Log10[Ab] (nM)
T5 construct: whole, on cells; also called huMUC16; MUC16 on OVCAR3 and SNU216 cells

[3] = biological target: T5, human MUC16 on cells; assay: flow cytometry (GMFI) on OVCAR3 cells, nM is the unit of the x axis Log10[Ab] (nM)
[4] = biological target: T1, HEK293-MUC16 (13810-14507); assay: flow cytometry (MFI GeoMean) on HEK293-MUC16 (13810-14507) cells, nM is the unit of the x axis Log10[Ab] (nM)
[5] = biological target: T5, human MUC16 on cells; assay: flow cytometry (MFI GeoMean) on OVCAR3 cells, nM is the unit of the x axis Log10[Ab] (nM)
[6] = biological target: T6, human MUC16 (human); assay: binding kinetics, sensorgrams in RU in FIG. 14B, model printed: Kinetics 1:1; form of the MUC16 antigen not given
T6 construct: also called MUC16 antigen of the kinetic assay

[7] = biological target: T2, huMUC16, AA14198-14507; assay: binding ELISA on huMUC16 AA14198-14507
[8] = biological target: T3, huMUC16, AA13789-14451; assay: binding ELISA on huMUC16 AA13789-14451
[9] = biological target: T5, human MUC16 on cells; assay: flow cytometry (GMFI) on OVCAR3 cells, nM is the unit of the x axis Log10[Ab] (nM); curve without upper plateau
[10] = biological target: T5, human MUC16 on cells; assay: as above; remark: listed apart in the source
[11] = biological target: T4, ROR1 on cells; assay: flow cytometry (gMFI) on A549 cells; remark: listed apart in the source

Row | Binder | EC50 [2] | EC50 [3] | EC50 [4] | EC50 [5] | binding result [7] | binding result [8] | EC50 [10] | also measured
1 | humanized 3C5 anti-ROR1 mAb (antibody, V domains shown, also called h3C5; h3C5-PTM) VH: EVQLVESGGGLVKPGGSLRLSCAASGFTFSSYAMSWVRQAPGKRLEWVSSISSGGTTYYPDTVKGRFTISRDNAKNSLYLQMNSLRAEDTAVYYCARDALYYGSSLYYAMDYWGQGTLVTVSS VL: DIQMTQSPSSLSASVGDRVTITCRASQDIYSYLSWFQQKPGKAPKTLIYRANRLVDAVPSRFSGSGSGQDYTLTISSLQPEDFATYYCLQYDEFPYTFGQGTKLEIK | – | – | – | – | – | – | – | EC50 (read off the curve) [1]: ~0.04 nM
2 | D57 (antibody, V domains shown, Anti-MUC16 mAb; also called MUC16-D57) VH: EVQLLESGGGLVTPGGSLRLSCTASGFTFSDYYLSWVRQAPGKGLEWMGGIIPIFGTANYAQKFQGRVTITADESTSTAYMELSSLRSEDTAVYYCARGGPHYDFWSGYTPGQHGGAFDIWGQGTMVTVSS VL: EIVLTQSPGTLSLSPGERATLSCRASQSVSSSYLAWYQQKPGQAPRLLIYGASSRATGIPDRFSGSGSGTDFTLTISRLEPEDFAVYYCQQRSNWRNTFGQGTRLEIK | 1.24 nM | 0.526 nM | 0.579 nM | 0.763 nM | – | – | – | Kd [6]: 5.26 nM; koff [6]: 0.0035 s⁻¹
3 | D41 (antibody, V domains shown, Anti-MUC16 mAb) VH: EVQLLESGGGLVQPGGSLRLSCAASGFTFSSYEMNWVRQAPGKGLEWVGRIKSKTDGGTTDYAAPVKGRFTISRDDSKNTLYLQMNSLKTEDTAVYYCTTDLAAVAGLFDYWGQGTTVTVSS VL: DIQLTQSPSSLSASVGDRVTITCQASQDISNYLNWYQQKPGKAPKLLIYDASNLETGVPSRFSGSGSGTDFTLTISSLQPEDFATYYCQQSYSTPWKFGQGTKVEIK | – | – | – | – | no binding (tested: 100 nM) | binds | – | EC50 [9]: 23.1 nM
4 | B218 (antibody, V domains shown, Anti-MUC16 mAb; also called MUC16-B218) VH: EVQLLESGAEVKKPGSSVKVSCKASGGTFSSYAISWVRQAPGQGLEWMGGIIPIFGTANYAQKFQGRVTITADESTSTAYMELSSLRSEDTAVYYCARGGPHYDFWSGYTPGQHGGAFDIWGQGTMVTVSS VL: NIQMTQSPSTLSASLGDRVSITCRASQSISGWLAWYQQKPGKAPKLLIYRTSYLESGVPSRFSAGGSGTEFTLTISSLQPDDFATYYCQHYDTFSRAFGQGTKVDIK | 0.76 nM | 0.687 nM | 0.244 nM | 0.907 nM | no binding (tested: 100 nM) | binds | – | Kd [6]: 6.17 nM; koff [6]: 0.0031 s⁻¹; kon [6]: 502000 M⁻¹ s⁻¹
5 | 3C5 (antibody, V domains shown, Anti-ROR1 mAb (chimeric section 9.1); also called anti-ROR1 mAb 3C5) VH: EVKLVESGGGLVKPGGSLKLSCAASGFTFSSYAMSWVRQTPEKRLEWVSSISSGGTTYYPDTVKGRFTISRDNARNILYLQMSSLRSEDTAMYYCARDSLYYGSSLYYAMDYWGQGTSVTVSS VL: DIKMTQSPSSMYASLGERVSITCRASQDIYSYLSWFQQKPGKSPKTLIYRANRLVDGVPSRFSGSGSGQDYSLTISSLEYEDMGIYYCLQYDEFPYTFGGGTKLEIK | – | – | – | – | – | – | – | EC50 (read off the curve) [1]: ~0.04 nM
6 | 8F2 (antibody, V domains shown, Anti-ROR1 mAb (chimeric section 9.1); also called anti-ROR1 mAb 8F2) VH: EVQLQQSGPELVKPGASVKMSCKASGYTFTTYVMHWVKQKPGQGLEWIGYINPYNGGIRYNEKFKGKATLTSDKSSSTAYMELSSLTSEDSAVYYCARRERGVYYGMDEWGQGTSVTVSS VL: DVVMTQTPLTLSVTIGQPASISCKSSQSLLHSNGKTYLNWLLQRPGQSPNLLIYLVSKLESGVPDRFSGSGSGTDFTLKISRVEAEDLGVYYCLQATYFPYTFGSGTKLEIK | – | – | – | – | – | – | – | EC50 (read off the curve) [11]: ~0.02 nM
7 | B76 (antibody, V domains shown, Anti-MUC16 mAb) VH: QMQLVQSGAEVKKPGSSVKVSCKASGGTFSSYAISWVRQAPGQGLEWMGGIIPIFGTANYAQKFQGRVTITADESTSTAYMELSSLRSEDTAVYYCARSITDYYDSSGYYFRPHFNTGYYYGMDVWGQGTTVTVSS VL: NIQLTQSPSSLSASVGDRVTITCRASQGINNYLAWYQQKPGKVPKLLIYAASTLQSGVPSRFSGSGSGTDFTLTITNLQPDDFATYYCQQYDTFSETFGPGTKVEIK | – | – | – | – | no binding (tested: 100 nM) | binds | 16.8 nM | –

Second part, led by results:

Row | EC50 [2] | EC50 [3] | EC50 [4] | EC50 [5] | binding result [7] | binding result [8] | EC50 [10] | Binder | also measured
8 | 0.12 nM | 0.395 nM | 0.0874 nM | 0.286 nM | no binding (tested: 100 nM) | binds | – | D100 (antibody, V domains shown, Anti-MUC16 mAb; also called MUC16-D100) VH: QVQLVQSGAEVKKPGSSVKVSCKASGGTFSRYHAISWVRQAPGQGLEWMGGIIPILGTANYAQKFQGRVTITADESTSTAYMELSSLRSEDTAVYYCASGTTAARYYYYYYYMDVWGKGTTVTVSS VL: NIQMTQSPSSLSASVGDRVTITCQASQDISNYLNWFHQKPGKAPNLLIYDASNLETGVPSRFSGSGSGTDFTFTISSLQPEDIGTYYCQQYDNLPLTFGGGTKVDIK | –
9 | – | – | – | – | no binding (tested: 100 nM) | binds | 40.6 nM | D79 (antibody, V domains shown, Anti-MUC16 mAb) VH: QMQLVQSGAEVKKPGSSVKVSCKASGGTFSSYAISWVRQAPGQGLEWMGGIIPIFGTANYAQKFQGRVTITADESTSTAYMELSSLRSEDTAVYYCARDSGSSITMVRGGDYYYMDVWGKGTTVTVSS VL: not shown | –
10 | – | – | – | – | no binding (tested: 100 nM) | binds | 15.1 nM | B195 (antibody, V domains shown, Anti-MUC16 mAb) VH: EVQLVQSGAEVKKPGASVKVSCKASGGTFSSYAISWVRQAPGQGLEWMGGIIPIFGTANYAQKFQGRVTITADESTSTAYMELSSLRSEDTAVYYCAREGPDYGDYSWSMDYYYGMDVWGQGTMVTVSS VL: EIVMTQSPGTLSLSPGERATLSCRASQSVNSRYLAWYQHKPGQAPRLLMYGASTRATGIPDRFSGSGSGTDFTLTISRLEPEDFAVYYCQQYGTFSITFGQGTRLEIK | –
